Reference: the supplement of paper PMC7877785
± gives the uncertainty stated by the source.

Test: self-splicing fitness, log relative to wild type (ln ratio); higher = more splicing; Tetrahymena group I intron in knt gene, E. coli kanamycin selection, DiMSum; sequences stand for … in CUCUCU…GGAGGGAAAAGUUAUCAGGCAUGCACCUGGUAGCUAGUCUUUAAACCAAUAGAUUGCAUCGGUUUAAAAGGCAAGACCGUCAAAUUGCGGGAAAGGGGUCAACAGCCGUUCAGUACCAAGUCUCAGGGGAAACUUUGAGAUGGCCUUGCAAAGGGUAUGGUAAUAAGCUGACGGACAUGGUCCUAACCACGCAGCCAAGUCCUAAGUCAACAGAUCUUCUGUUGAUAUGGAUGCAGUUCACAGACUAAAUGUCGGUCGGGGAAGAUGUAUUCUUCUCAUAAGAUAUAGUCGGACCUCUCCUUAAUGGGAGCUAGCGGAUGAAGUGAUGCAACACUGGAGCCGCUGGGAACUAAUUUGUAUGCGAAAGUAUAUUGAUUAGUUUUGGAGUACUCGUGGUCG
How it was run: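 Six replicate transformations of E. coli BL21(DE3) with a pET-22b(+) library were grown overnight at 37°C or 30°C. The library randomised all eight P1ex-region intron nucleotides, the intron lying in the knt kanamycin-resistance gene, and plates were LB agar with or without 25 μg/mL kanamycin plus 100 μg/mL carbenicillin, 50 μM IPTG and 0.2% rhamnose. Pooled colonies were amplicon-sequenced on an Illumina HiSeq 2500, and fitness is the DiMSum error-weighted combination of wild-type-normalised replicate fold changes, kanamycin versus none.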

Sequence | self-splicing fitness (ln) (30 °C) | self-splicing fitness (ln) (37 °C)
AUUAAGCAAUAUUACGAGUA | -2.07 ± 0.16 | -1.49 ± 0.13
UCUAAGCAAUAUUACGUACA | -1.57 ± 0.13 | -1.13 ± 0.13
UCUAAGCAAUAUUACGAGAG | -3.21 ± 0.28 | -2.37 ± 0.21
UGAGAGCAAUAUUACGCAUG | -1.65 ± 0.13 | -2.09 ± 0.18
CACAAGCAAUAUUACGCGUA | -1.64 ± 0.072 | -0.625 ± 0.067
CCCGAGCAAUAUUACGGAAC | -2.51 ± 0.31 | -2.57 ± 0.34
UUCUAGCAAUAUUACGAUAC | -2.08 ± 0.38 | -2.64 ± 0.41
UGAAAGCAAUAUUACGUCAG | -1.78 ± 0.13 | -0.368 ± 0.13
GACAAGCAAUAUUACGGUCU | -4.04 ± 0.16 | -2.42 ± 0.15
GGCAAGCAAUAUUACGAACC | -2.41 ± 0.36 | -0.982 ± 0.24
AUGUAGCAAUAUUACGACUA | -0.419 ± 0.27 | -0.536 ± 0.31
CACGAGCAAUAUUACGGCUA | -2.19 ± 0.22 | -1.41 ± 0.17
GGGUAGCAAUAUUACGUACU | -2.25 ± 0.4 | -1.43 ± 0.38
AUCAAGCAAUAUUACGAGUU | -1.57 ± 0.081 | -1.42 ± 0.097
AUGUAGCAAUAUUACGUAAA | -2.25 ± 0.25 | -1.9 ± 0.26
UCGGAGCAAUAUUACGGCUA | – | -1.32 ± 0.39
GUGCAGCAAUAUUACGGUCG | -1.29 ± 0.053 | -0.792 ± 0.075
CGUCAGCAAUAUUACGCCAA | -3.6 ± 0.3 | -1.73 ± 0.18
ACAGAGCAAUAUUACGGGCA | -2.58 ± 0.19 | -0.773 ± 0.15
ACUUAGCAAUAUUACGAUUG | -3.17 ± 0.2 | -0.306 ± 0.16
AGGUAGCAAUAUUACGACCC | -2.38 ± 0.047 | -1.69 ± 0.064
UUCGAGCAAUAUUACGUACU | -2.87 ± 0.42 | -2.01 ± 0.36
AGUGAGCAAUAUUACGAAUA | – | -1.17 ± 0.22
ACCAAGCAAUAUUACGCGCC | -1.35 ± 0.11 | 0.198 ± 0.14
GAGGAGCAAUAUUACGCGAG | – | -2.99 ± 0.35

Sequence | self-splicing fitness (ln) (30 °C) | self-splicing fitness (ln) (37 °C)
GCCCAGCAAUAUUACGGGGG | -3.34 ± 0.11 | -2.78 ± 0.15
CUCAAGCAAUAUUACGUGAU | -1.25 ± 0.053 | -0.372 ± 0.067
UACGAGCAAUAUUACGGCAA | -1.96 ± 0.24 | -0.476 ± 0.18
AGCGAGCAAUAUUACGCCCG | – | -0.109 ± 0.42
GUAGAGCAAUAUUACGGUUA | -1.35 ± 0.11 | -0.0418 ± 0.13
UACUAGCAAUAUUACGCACC | -1.86 ± 0.2 | -1.22 ± 0.26
CAGUAGCAAUAUUACGCUCG | -0.354 ± 0.12 | -0.439 ± 0.17
AGGUAGCAAUAUUACGGGCG | -1.03 ± 0.015 | -0.573 ± 0.034
UAACAGCAAUAUUACGCAAA | -3.11 ± 0.19 | -2.3 ± 0.12
GUAAAGCAAUAUUACGUUAU | -2.57 ± 0.14 | -1.23 ± 0.17
AAGAAGCAAUAUUACGACCA | -0.349 ± 0.1 | -0.795 ± 0.2
GAACAGCAAUAUUACGGAAU | -1.6 ± 0.095 | -1.18 ± 0.11
CUUCAGCAAUAUUACGUAUA | -3.15 ± 0.27 | -1.98 ± 0.2
AGAUAGCAAUAUUACGAACA | -1.15 ± 0.11 | -0.00294 ± 0.12
CCCAAGCAAUAUUACGAUGU | -3.53 ± 0.18 | -2.04 ± 0.15
CAAUAGCAAUAUUACGAUAA | -3.24 ± 0.48 | -3.1 ± 0.33
GCCUAGCAAUAUUACGGCGU | -0.505 ± 0.074 | -0.0919 ± 0.08
GCUGAGCAAUAUUACGUAUC | -2.37 ± 0.13 | 0.164 ± 0.1
ACAGAGCAAUAUUACGACUA | -1.17 ± 0.48 | -1.17 ± 0.42
CGGCAGCAAUAUUACGACCU | -0.341 ± 0.089 | -0.0632 ± 0.11
GGAAAGCAAUAUUACGAUGA | -1.68 ± 0.2 | -0.498 ± 0.2
GUCCAGCAAUAUUACGUUUA | -0.851 ± 0.08 | -0.0697 ± 0.076
CACGAGCAAUAUUACGGUGU | -3.93 ± 0.22 | -2.33 ± 0.21
GGCUAGCAAUAUUACGGCAU | -0.0766 ± 0.11 | 0.833 ± 0.13
CAACAGCAAUAUUACGUGAU | -2.64 ± 0.075 | -2.19 ± 0.1

Sequence | self-splicing fitness (ln) (30 °C) | self-splicing fitness (ln) (37 °C)
UUUUAGCAAUAUUACGGCAA | 0.145 ± 0.12 | -0.398 ± 0.15
ACCUAGCAAUAUUACGCGGU | -4.32 ± 0.46 | -2.48 ± 0.31
ACUCAGCAAUAUUACGAAAG | -1.78 ± 0.12 | -1.42 ± 0.15
CCGUAGCAAUAUUACGAGAA | -2.42 ± 0.42 | -1.03 ± 0.44
UAGCAGCAAUAUUACGAAGU | -1.64 ± 0.13 | -1.59 ± 0.3
CGACAGCAAUAUUACGAACG | -0.656 ± 0.11 | -0.117 ± 0.16
GGUGAGCAAUAUUACGAUGC | -1.6 ± 0.13 | -0.514 ± 0.19
GCUUAGCAAUAUUACGCGUU | -0.427 ± 0.096 | 0.0522 ± 0.1
GGUGAGCAAUAUUACGCUUA | -3.17 ± 0.35 | -1.92 ± 0.33
CGGGAGCAAUAUUACGCACC | -3.47 ± 0.39 | –
CGUCAGCAAUAUUACGCUGG | -2.6 ± 0.3 | -2.14 ± 0.34
AGGCAGCAAUAUUACGAUGC | -3.17 ± 0.15 | -2.8 ± 0.18
GGUCAGCAAUAUUACGAGAU | -2.39 ± 0.14 | -2.31 ± 0.23
GAGGAGCAAUAUUACGUCUA | -2.04 ± 0.12 | -0.687 ± 0.15
GUCCAGCAAUAUUACGAAAC | -0.222 ± 0.15 | -0.568 ± 0.2
GUAGAGCAAUAUUACGACAC | -0.732 ± 0.15 | 0.357 ± 0.2
AUUCAGCAAUAUUACGUUUG | -2.76 ± 0.094 | -1.54 ± 0.1
GCCAAGCAAUAUUACGCGAG | -2.43 ± 0.11 | -2 ± 0.17
UAGUAGCAAUAUUACGCGUG | -1.03 ± 0.12 | -0.705 ± 0.15
AACCAGCAAUAUUACGCAGG | -4.46 ± 0.2 | -2.28 ± 0.14
UCGUAGCAAUAUUACGAGAU | -4.2 ± 0.42 | -2.6 ± 0.39
AACGAGCAAUAUUACGUUUG | -3.6 ± 0.2 | -2.45 ± 0.28
UCUGAGCAAUAUUACGUCUG | -1.01 ± 0.11 | -1.4 ± 0.14
GGAUAGCAAUAUUACGCUUC | -3.86 ± 0.35 | –
GAGCAGCAAUAUUACGCGCA | -0.638 ± 0.1 | 0.461 ± 0.12

Sequence | self-splicing fitness (ln) (30 °C) | self-splicing fitness (ln) (37 °C)
GUACAGCAAUAUUACGACCA | -1.85 ± 0.25 | -0.829 ± 0.33
UCAGAGCAAUAUUACGGUAG | -3.45 ± 0.24 | -2.39 ± 0.27
UUAGAGCAAUAUUACGGAUG | -3.13 ± 0.19 | -0.15 ± 0.15
CUGUAGCAAUAUUACGUGCU | -2.94 ± 0.24 | -2.39 ± 0.33
GGGCAGCAAUAUUACGCCAA | -0.582 ± 0.19 | -0.176 ± 0.24
AUAAAGCAAUAUUACGCAAG | -1.19 ± 0.12 | -0.742 ± 0.14
CCAAAGCAAUAUUACGGCGG | -3.8 ± 0.15 | -2.48 ± 0.16
GACCAGCAAUAUUACGCAGG | -3.82 ± 0.21 | -2.49 ± 0.13
AGUGAGCAAUAUUACGAUGC | -2.29 ± 0.28 | -3.16 ± 0.43
AUACAGCAAUAUUACGUGGU | -2.71 ± 0.13 | -2.27 ± 0.14
UGCCAGCAAUAUUACGAGCC | -0.839 ± 0.087 | 0.369 ± 0.15
CCAUAGCAAUAUUACGUCCA | -1.27 ± 0.18 | -1.85 ± 0.33
CCGCAGCAAUAUUACGAGAA | -3.07 ± 0.28 | -2.24 ± 0.31
AUGCAGCAAUAUUACGUAUU | -4.03 ± 0.26 | -1.69 ± 0.14
CUAUAGCAAUAUUACGGUAG | -2.21 ± 0.14 | -2.58 ± 0.2
AUGGAGCAAUAUUACGGUCC | -3 ± 0.32 | -0.466 ± 0.31
GUAAAGCAAUAUUACGUAGA | -2.33 ± 0.1 | -1.32 ± 0.12
AAAUAGCAAUAUUACGUAGG | -2.59 ± 0.1 | -1.96 ± 0.1
AAGCAGCAAUAUUACGGGUA | -1.91 ± 0.15 | -2.31 ± 0.16
GUGAAGCAAUAUUACGAAAU | -0.716 ± 0.11 | -0.0167 ± 0.12
ACCAAGCAAUAUUACGUUAU | -2.95 ± 0.087 | -2.04 ± 0.093
UGUAAGCAAUAUUACGCGUC | -3.31 ± 0.25 | -2.65 ± 0.32
